The target of experiment [1] is DREP1 CIDE domain (DFF-related protein 1), wild type (Drosophila melanogaster). Nature of the experiment: SEC; purified proteins alone or mixed, Superdex 200 HR 10/30 in 20 mM Tris-HCl pH 8.0, 150 mM NaCl; peak fractions on SDS-PAGE.
Experiment [2] has as its target DREP3 CIDE domain (DFF-related protein 3), wild type (Drosophila melanogaster). Described as above.

The stoichiometry N is a count of units in the complex or per binding partner. For the substance “DREP1 CIDE domain (DFF-related protein 1), wild type (domain or fragment)”, the stoichiometry N in experiment [1] came to 2. Turning to “DREP3 CIDE domain (DFF-related protein 3), wild type (domain or fragment)”, the stoichiometry N in experiment [2] amounted to 2.

The values are drawn from paper PMC5730196.
